# According to PMC11218954 (PLOS ONE, 2024):
# “And” between values parts separate entries of the source, which are not always exact repeats. Equal values may be shown once.
# Target: T1, recombinant F1 antigen of Y. pestis, monomer enriched (Yersinia pestis, strain , UniProt P26948)
# T1 construct: source: expressed in E. coli; BEI NR-44223, monomer enriched
# Assay: SPR
# Conditions: both partners purified
row,Binder,Kd
1,"αF1Ig AM2 (antibody, V domains shown, also called aF1Ig AM2; source: HEK293 cells, produced by ATUM; purified IgG) VH: QVQLVESGGGLVKPGGSLRLSCAASGFTFSDYYMSWIRQAPGKGLEWVSYISGSGSIIYYADSVKGRFTISRDNAKNSLYLQMNSLRAEDTAVYYCAKEIRKHDAFDIWGQGTMVTVSS VL: DIRMTQSPSSLSASVGDRVTITCRASRSISGYLNWYQQKPGKAPKLLIYATSSLQSGVPSRFSGSGSGTDFTLTISSLQPEDFATYYCQQSYSTPSSFGQGTKVDIK",2.4 nM and 2.3 nM and 1.2 nM
2,"αF1Ig 2 (antibody, V domains shown, also called aF1Ig 2; aF1_2; source: HEK293 cells, produced by ATUM; purified IgG) VH: QVQLVESGGGLVKPGGSLRLSCAASGFTFSDYYMSWIRQAPGKGLEWVSYISSSGSIIYYADSVKGRFTISRDNAKNSLYLQMNSLRAEDTAVYYCAKEIRRHDAFDIWGQGTMVTVSS VL: not shown",2.2 nM and 1.3 nM and 2.8 nM and 1.2 nM
3,"αF1Ig 8 (antibody, V domains shown, also called aF1Ig 8; aF1_8; source: HEK293 cells, produced by ATUM; purified IgG) VH: QVQLQQWGAGLLKPSETLSLTCAVYGGSFSGYYWSWIRQPPGKGLEWIGEINHSGNTNYNPSLKSRVTISVDTSKNQFSLQLNSVTPEDTAVYYCARTRGYFDLWGRGTLVTVSS VL: QPVLTQSPSVSVSPGQTASITCSGDKLGDRYASWYQQKPGQSPVLVIYQDTKRPSGIPERFSGSNSGNTATLTISGTQAMDEADYYCQSWDSSAAVFGTGTKLTVL",5.6 nM and 9.7 nM and 7.4 nM and 6 nM
4,"αF1Ig AM8 (antibody, V domains shown, also called aF1Ig AM8; source: HEK293 cells, produced by ATUM; purified IgG) VH: QVQLQQWGAGLLKPSETLSLTCAVYGGSFSGYYWSWIRQPPGKGLEWIGEINRSGNTNYNPSLKSRVTISVDTSKNQFSLQLNSVTPEDTAVYYCARTRGYFDLWGRGTLVTVSS VL: QPVLTQSPSVSVSPGQTASITCSGDKLGGRYASWYQQKPGQSPVLVIYQDTKRPSGIPERFSGSNSGNTATLTISGTQAMDEADYYCQSWDSSAAVFGTGTKLTVL",1.5 nM and 2.4 nM and 1.3 nM and 1.6 nM

# Target: T2, soluble recombinant F1 antigen, monomer-enriched (Yersinia pestis, strain , UniProt P26948)
# T2 construct: source: bought: BEI Resources NR-44223, expressed in E. coli, monomer enriched
# Assay: SPR
# Conditions: both partners purified
row,Binder,Kd [nM]
1,"αF1Ig AM2 (affinity matured anti-F1 immunoglobulin G type 1) (antibody, V domains shown, IgG1; also called αF1 AM2; source: HEK293 cells, produced by ATUM, purified IgG) VH: QVQLVESGGGLVKPGGSLRLSCAASGFTFSDYYMSWIRQAPGKGLEWVSYISGSGSIIYYADSVKGRFTISRDNAKNSLYLQMNSLRAEDTAVYYCAKEIRKHDAFDIWGQGTMVTVSS VL: DIRMTQSPSSLSASVGDRVTITCRASRSISGYLNWYQQKPGKAPKLLIYATSSLQSGVPSRFSGSGSGTDFTLTISSLQPEDFATYYCQQSYSTPSSFGQGTKVDIK",2.7
2,"αF1Ig 2 (parental anti-F1 immunoglobulin G type 1) (antibody, V domains shown, IgG1; also called parental IgG 2; original anti-F1 IgG 2; source: HEK293 cells, produced by ATUM, purified IgG) VH: QVQLVESGGGLVKPGGSLRLSCAASGFTFSDYYMSWIRQAPGKGLEWVSYISSSGSIIYYADSVKGRFTISRDNAKNSLYLQMNSLRAEDTAVYYCAKEIRRHDAFDIWGQGTMVTVSS VL: not shown",1.9
3,"αF1Ig 8 (parental anti-F1 immunoglobulin G type 1) (antibody, V domains shown, IgG1; also called parental IgG 8; original anti-F1 IgG 8; source: HEK293 cells, produced by ATUM, purified IgG) VH: QVQLQQWGAGLLKPSETLSLTCAVYGGSFSGYYWSWIRQPPGKGLEWIGEINHSGNTNYNPSLKSRVTISVDTSKNQFSLQLNSVTPEDTAVYYCARTRGYFDLWGRGTLVTVSS VL: QPVLTQSPSVSVSPGQTASITCSGDKLGDRYASWYQQKPGQSPVLVIYQDTKRPSGIPERFSGSNSGNTATLTISGTQAMDEADYYCQSWDSSAAVFGTGTKLTVL",7.4
4,"αF1Ig AM8 (affinity matured anti-F1 immunoglobulin G type 1) (antibody, V domains shown, IgG1; also called aF1Ig AM8; αF1 AM8; source: HEK293 cells, produced by ATUM, purified IgG) VH: QVQLQQWGAGLLKPSETLSLTCAVYGGSFSGYYWSWIRQPPGKGLEWIGEINRSGNTNYNPSLKSRVTISVDTSKNQFSLQLNSVTPEDTAVYYCARTRGYFDLWGRGTLVTVSS VL: QPVLTQSPSVSVSPGQTASITCSGDKLGGRYASWYQQKPGQSPVLVIYQDTKRPSGIPERFSGSNSGNTATLTISGTQAMDEADYYCQSWDSSAAVFGTGTKLTVL",1.9
